US20190241648A1 (STATEN BIOTECHNOLOGY B V, published 2019)
Values belong to the binder of their own block, whether it stands above or below them. Ends that are not written are not given here.

How the values were obtained:
ApoC3 peptide … D66W = target: T1, ApoC3 peptide … D66W (human, not fully specified (bridges); also: cyclic constrained); experiment: peptide microarray
T1 peptide: DKFSEFWWLDPEV
Description: (§1) F64 was completely variable.
(§2) Pre: staining of one of the ApoC3 peptide microarrays was done with the secondary antibody goat anti-human IgG (Fe) DyLight680 (1:5000) and control antibody mouse monoclonal anti-HA (12CA5) DyLight800 (1:2000) to investigate background interactions of the secondary antibody with the antigen-derived peptides that could interfere with the main assays. Subsequent incubation of other ApoC3 peptide microarrays with antibody samples was followed by staining with secondary and control antibodies as well as read-out at scanning intensities of 7/7 (red/green). The additional HA peptides framing the peptide arrays were stained as internal quality control to confirm the assay quality and the peptide microarray integrity.

ApoC3 peptide … P69D = target: T2, ApoC3 peptide … P69D (human, not fully specified (bridges); also: cyclic constrained); experiment: peptide microarray
T2 peptide: DKFSEFWDLDDEV
Description: as §1, §2

ApoC3 peptide … E63N = ApoC3 peptide … E63N (human, cyclic constrained); experiment: peptide microarray
Description: as §1, §2

ApoC3 peptide … V71Q = ApoC3 peptide … V71Q (human, cyclic constrained); experiment: peptide microarray
Description: as §1, §2

ApoC3 peptide … F64P = target: T3, ApoC3 peptide … F64P (human, not fully specified (bridges); also: cyclic constrained); experiment: peptide microarray
T3 peptide: DKFSEPWDLDPEV
Description: as §1, §2

ApoC3 peptide … D59T = target: T4, ApoC3 peptide … D59T (human, cyclic constrained); experiment: peptide microarray
T4 peptide: TKFSEFWDLDPEV
Description: as §1, §2

ApoC3 peptide … E63M = ApoC3 peptide … E63M (human, cyclic constrained); experiment: peptide microarray
Description: as §1, §2

ApoC3 peptide … D59S = target: T5, ApoC3 peptide … D59S (human, cyclic constrained); experiment: peptide microarray
T5 peptide: SKFSEFWDLDPEV
Description: as §1, §2

ApoC3 peptide … L67C = target: T6, ApoC3 peptide … L67C (human, not fully specified (bridges); also: cyclic constrained); experiment: peptide microarray
T6 peptide: DKFSEFWDCDPEV
Description: as §1, §2

ApoC3 peptide … D59N = target: T7, ApoC3 peptide … D59N (human, cyclic constrained); experiment: peptide microarray
T7 peptide: NKFSEFWDLDPEV
Description: as §1, §2

ApoC3 peptide … W65G = target: T8, ApoC3 peptide … W65G (human, not fully specified (bridges); also: cyclic constrained, ring type and places not given here); experiment: peptide microarray
T8 peptide: DKFSEFGDLDPEV
Description: as §1, §2

ApoC3 peptide … W65L = target: T9, ApoC3 peptide … W65L (human, not fully specified (bridges); also: cyclic constrained, ring type and places not given here); experiment: peptide microarray
T9 peptide: DKFSEFLDLDPEV
Description: as §1, §2

ApoC3 peptide … L67D = target: T10, ApoC3 peptide … L67D (human, not fully specified (bridges); also: cyclic constrained); experiment: peptide microarray
T10 peptide: DKFSEFWDDDPEV
Description: as §1, §2

ApoC3 peptide … F64H = target: T11, ApoC3 peptide … F64H (human, not fully specified (bridges); also: cyclic constrained); experiment: peptide microarray
T11 peptide: DKFSEHWDLDPEV
Description: as §1, §2

ApoC3 peptide … D66V = target: T12, ApoC3 peptide … D66V (human, not fully specified (bridges); also: cyclic constrained); experiment: peptide microarray
T12 peptide: DKFSEFWVLDPEV
Description: as §1, §2

ApoC3 peptide … K60H = target: T13, ApoC3 peptide … K60H (human, not fully specified (bridges); also: cyclic constrained); experiment: peptide microarray
T13 peptide: DHFSEFWDLDPEV
Description: as §1, §2

ApoC3 peptide … E70C = ApoC3 peptide … E70C (human, cyclic constrained); experiment: peptide microarray
Description: as §1, §2

ApoC3 peptide … S62W = ApoC3 peptide … S62W (human, cyclic constrained); experiment: peptide microarray
Description: as §1, §2

ApoC3 peptide … P69W = ApoC3 peptide … P69W (human, cyclic constrained); experiment: peptide microarray
Description: as §1, §2

ApoC3 peptide … F61I [1] = target: T14, ApoC3 peptide … F61I (human, cyclic constrained); experiment: peptide microarray
T14 peptide: DKISEFWDLDPEV
Description: as §1, §2

ApoC3 peptide … F61M = target: T15, ApoC3 peptide … F61M (human, not fully specified (bridges); also: cyclic constrained); experiment: peptide microarray
T15 peptide: DKMSEFWDLDPEV
Description: as §1, §2

ApoC3 peptide … D59C = target: T16, ApoC3 peptide … D59C (human, cyclic constrained); experiment: peptide microarray
T16 peptide: CKFSEFWDLDPEV
Description: as §1, §2

ApoC3 peptide … F61Q = target: T17, ApoC3 peptide … F61Q (human, not fully specified (bridges); also: cyclic constrained); experiment: peptide microarray
T17 peptide: DKQSEFWDLDPEV
Description: as §1, §2

ApoC3 peptide … F64E = target: T18, ApoC3 peptide … F64E (human, not fully specified (bridges); also: cyclic constrained); experiment: peptide microarray
T18 peptide: DKFSEEWDLDPEV
Description: as §1, §2

ApoC3 peptide … F64C = target: T19, ApoC3 peptide … F64C (human, not fully specified (bridges); also: cyclic constrained); experiment: peptide microarray
T19 peptide: DKFSECWDLDPEV
Description: as §1, §2

ApoC3 peptide … D68N = target: T20, ApoC3 peptide … D68N (human, cyclic constrained); experiment: peptide microarray
T20 peptide: DKFSEFWDLNPEV
Description: as §1, §2

ApoC3 peptide … V71P = ApoC3 peptide … V71P (human, cyclic constrained); experiment: peptide microarray
Description: as §1, §2

ApoC3 peptide … K60P = target: T21, ApoC3 peptide … K60P (human, not fully specified (bridges); also: cyclic constrained); experiment: peptide microarray
T21 peptide: DPFSEFWDLDPEV
Description: as §1, §2

ApoC3 peptide … D66T = target: T22, ApoC3 peptide … D66T (human, not fully specified (bridges); also: cyclic constrained); experiment: peptide microarray
T22 peptide: DKFSEFWTLDPEV
Description: as §1, §2

ApoC3 peptide … S62C = ApoC3 peptide … S62C (human, cyclic constrained); experiment: peptide microarray
Description: as §1, §2

ApoC3 peptide … P69L = target: T23, ApoC3 peptide … P69L (human, not fully specified (bridges); also: cyclic constrained); experiment: peptide microarray
T23 peptide: DKFSEFWDLDLEV
Description: as §1, §2

ApoC3 peptide … D68K = target: T24, ApoC3 peptide … D68K (human, cyclic constrained); experiment: peptide microarray
T24 peptide: DKFSEFWDLKPEV
Description: as §1, §2

ApoC3 peptide … E63W = ApoC3 peptide … E63W (human, cyclic constrained); experiment: cyclic peptide substitution array
ApoC3 peptide … F61I [2] = target: T14, ApoC3 peptide … F61I; experiment: cyclic peptide substitution array
ApoC3 peptide … L67N = target: T25, ApoC3 peptide … L67N (human, not fully specified (bridges); also: cyclic constrained); experiment: cyclic peptide substitution array
T25 peptide: DKFSEFWDNDPEV

ApoC3 peptide D59Y = target: T26, ApoC3 peptide D59Y (human, not fully specified; cyclic (thioether)); experiment: cyclic peptide substitution array
T26 peptide: YKFSEFWDLDPEV
How it was run: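 Peptide microarrays incubated with antibody samples, then stained with goat anti-human IgG (Fc) DyLight680 and anti-HA DyLight800 control antibodies, scanned at intensity 7/7 (red/green). Secondary-only pre-stain checked background binding; framing HA peptides served as quality control; substitution effects read as changes in spot intensity.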

% of binding to wild-type peptide (ApoC3 peptide … D66W): 0% | % of binding to wild-type peptide (ApoC3 peptide … P69D): 98.5% | % of binding to wild-type peptide (ApoC3 peptide … E63N): 38.8% | % of binding to wild-type peptide (ApoC3 peptide … V71Q): 81.4% | % of binding to wild-type peptide (ApoC3 peptide … F64P): 285% | % of binding to wild-type peptide (ApoC3 peptide … D59T): 101% | % of binding to wild-type peptide (ApoC3 peptide … E63M): 43.5% | % of binding to wild-type peptide (ApoC3 peptide … D59S): 87.5% | % of binding to wild-type peptide (ApoC3 peptide … L67C): 1.13% | % of binding to wild-type peptide (ApoC3 peptide … D59N): 77.5% | % of binding to wild-type peptide (ApoC3 peptide … W65G): 49.5% | % of binding to wild-type peptide (ApoC3 peptide … W65L): 18.5% | % of binding to wild-type peptide (ApoC3 peptide … L67D): 2.89% | % of binding to wild-type peptide (ApoC3 peptide … F64H): 107% | % of binding to wild-type peptide (ApoC3 peptide … D66V): 0% | % of binding to wild-type peptide (ApoC3 peptide … K60H): 124% | % of binding to wild-type peptide (ApoC3 peptide … E70C): 0% | % of binding to wild-type peptide (ApoC3 peptide … S62W): 4.78% | % of binding to wild-type peptide (ApoC3 peptide … P69W): 13.7% | % of binding to wild-type peptide (ApoC3 peptide … F61I [1]): 44.3% | % of binding to wild-type peptide (ApoC3 peptide … F61M): 56.5% | % of binding to wild-type peptide (ApoC3 peptide … D59C): 69.2% | % of binding to wild-type peptide (ApoC3 peptide … F61Q): 64.5% | % of binding to wild-type peptide (ApoC3 peptide … F64E): 236% | % of binding to wild-type peptide (ApoC3 peptide … F64C): 76.4% | % of binding to wild-type peptide (ApoC3 peptide … D68N): 0% | % of binding to wild-type peptide (ApoC3 peptide … V71P): 110% | % of binding to wild-type peptide (ApoC3 peptide … K60P): 157% | % of binding to wild-type peptide (ApoC3 peptide … D66T): 0% | % of binding to wild-type peptide (ApoC3 peptide … S62C): 10.4% | % of binding to wild-type peptide (ApoC3 peptide … P69L): 36.8% | % of binding to wild-type peptide (ApoC3 peptide … D68K): 0%
B1: anti-ApoC3 antibody 6A6 (antibody, V domains shown)
VH: EVQLVESGGGLVQPGGSLRLSCAASGFTFSSYAGRWVRQVPGKGLEWVSSINAGGGSTSYADSVKGRFTISRDNAKNTLYLQMNSLKPEDTAKYYCTQNSYRYWGQGTRVAVSS
VL: DVVLTQTPGSLSVVPGESASISCKASQSLIHTDGKTYLYWLLQKPGQRPQLLIYQVSSHESGVPDRFTGSGSGTDFTLKISGVKAEDAGVYYCAQATYNPRTFGQGTKLEIK
notes: it was detected with goat anti-human IgG (Fc); also called mAb 6A6; llama antibody 6A6

% of binding to wild-type peptide (ApoC3 peptide … E63W): 9.57% | % of binding to wild-type peptide (ApoC3 peptide … F61I [2]): 7.59% | % of binding to wild-type peptide (ApoC3 peptide … L67N): 9.84% | % of binding to wild-type peptide (ApoC3 peptide D59Y): 50.3%
B2: Llama antibody 5E5 (antibody, V domains shown)
VH: QLQLVESGGGLVQPGGSLRLSCAASGFTFGTYSMRWVRQVPRKALEWVSSISTDGGGTAYRDSVKGRFTISRDNAKNTLYLQMNNLKPEDTAIYYCVIAGYSDWGQGTQVTVSS
VL: ATMLTQSPGSLSVVPGESASISCKTSQGLVHSDGKTYFYWFLQKPGQSPQQLIYQVSNRASGVPDRFTGSGSGTDFTLKISGVKAEDAGVYYCAQGTYYPHTFGSGTRLEIK
notes: detected with goat anti-human IgG (Fc); also called mAb 5E5
